Source: PMC3907550

Columns and labels:
[1] = molecular target: HA2His6-tagged Arabidopsis ADK (Arabidopsis) (UniProt Q9LZG0)
[2] = molecular target: HA2His6-tagged Arabidopsis ADK (Arabidopsis) (UniProt Q9LZG0); remark: listed apart in the source

Sequence of UniProt Q9LZG0 (Q9LZG0 whole entry): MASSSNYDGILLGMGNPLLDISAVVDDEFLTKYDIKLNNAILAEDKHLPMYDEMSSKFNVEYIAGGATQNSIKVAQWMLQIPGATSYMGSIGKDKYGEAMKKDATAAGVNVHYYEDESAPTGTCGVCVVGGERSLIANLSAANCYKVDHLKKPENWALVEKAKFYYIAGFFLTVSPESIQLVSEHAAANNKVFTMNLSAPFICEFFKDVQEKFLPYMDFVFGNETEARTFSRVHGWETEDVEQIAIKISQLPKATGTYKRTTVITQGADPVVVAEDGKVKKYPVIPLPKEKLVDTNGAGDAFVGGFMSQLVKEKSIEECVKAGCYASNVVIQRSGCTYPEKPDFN

Q: Which ADK activity (labeled 5′-AMP from adenosine and γ32P-ATP) with a two-fold molar excess of HA2His6-SnRK1-KD, against ADK+GFP [1] does the source give for “HA2His6-tagged SnRK1 kinase domain (SnRK1-KD; amino acids 1-343) (from UniProt P92958 1-343) (domain or fragment)” here?
A: The ADK activity (labeled 5′-AMP from adenosine and γ32P-ATP) with a two-fold molar excess of HA2His6-SnRK1-KD, against ADK+GFP was 6 fold.

Q: What about the ADK activity against increasing HA2His6-SnRK1-KD:ADK molar ratio, up to 4∶1 [2] of the same substance?
A: Its ADK activity against increasing HA2His6-SnRK1-KD:ADK molar ratio, up to 4∶1 is 90 % of maximum.
